Values belong to the binder of their own block, whether it stands above or below them.
Columns and labels:
[1] = biological target: T1, Recombinant Human OX40L (Leader sequence, Isoleucine Zipper and FLAG Sequence Included) (human); assay: SPR (ProteOn XPR36), antibody captured on anti-mouse IgG, OX40L at 256 nM, 1:1 model, apparent affinity, 25 C
T1 construct: In-house construct: extracellular domain of human OX40L with a FLAG motif and an isoleucine zipper to aid trimerisation; It was used biotinylated in the HTRF assays and unlabelled in SPR and the T-cell assay; also called hOX40L; biotinylated OX40L
T1 sequence (chain, as listed by the source limits assumed): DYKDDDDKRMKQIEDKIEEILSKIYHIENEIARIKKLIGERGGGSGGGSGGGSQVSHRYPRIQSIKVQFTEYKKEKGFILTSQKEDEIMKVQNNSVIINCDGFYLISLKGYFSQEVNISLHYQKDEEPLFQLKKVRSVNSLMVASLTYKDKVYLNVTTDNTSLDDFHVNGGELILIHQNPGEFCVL

[2] = biological target: T1, Recombinant Human OX40L (Leader …); assay: HTRF ligand/receptor neutralisation, biotinylated hOX40L with OX40RFc-AF647 as competitor; mean of three experiments
[3] = biological target: T1, Recombinant Human OX40L (Leader …); assay: cell-based or functional assay

Kd [1]: 2.2 nM
B1: 19H01 (hybridoma) (antibody, V domains shown)
VH: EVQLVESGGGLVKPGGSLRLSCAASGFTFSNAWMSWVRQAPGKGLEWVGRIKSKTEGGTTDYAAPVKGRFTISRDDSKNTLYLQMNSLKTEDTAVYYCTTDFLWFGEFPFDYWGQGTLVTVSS
VL: DIQMTQSPSSLSASVGDRVTITCRASQGISNYLAWYQQKPGKIPKLLIYAASTLQSGVPSRFSGSGSGTDFTLTISSLQPEDVATYYCQKYNSAPRTFGQGTKVEIK
notes: Purified from hybridoma supernatant as a murine/human chimeric antibody (human variable domains, mouse constant regions)

Kd [1]: 5.3 nM
B2: 9H04 (hybridoma) (antibody, V domains shown)
VH: QVQLVESGGGLVKPGGSLRLSCAASRFTLSDYYMTWIRQAPGKGLEWVSYISSSGNTIYYADSVKGRFTISRDNAKNSLYLQMNSLRAEDTAVYYCARDLSGSYWDYYYGMDVWGQGTTVTVSS
VL: AIQLTQSPSSLSTSVGDRVTIACRASQGINNALAWYQQKPGKAPKLLIYDASSLESGVPSRFSGSGSGTDFTLTISSLQPEDFATYYCQQFNSYPRTFGQGTKVEIK
notes: Purified from hybridoma supernatant as a murine/human chimeric antibody (human variable domains, mouse constant regions); also called 09H04

IC50 [2]: 0.75 nM | Primary T-cell Assay IC50 (recombinant OX40L induced IL2 release from primary human T-cells) [3]: 0.81 nM
B3: 2D10 (human) (antibody, human IgG4 S228P, kappa, V domains shown)
VH: EVQLVESGGGLVQPGGSLRLSCAASGFTFSNYAMNWVRQAPGKGLEWVSTISGSGGATRYADSVKGRFTISRDNSRNTVYLQMNSLRVEDTAVFYCTKDRLIMATVRGPYYYGMDVWGQGTTVTVSS
VL: DIQMTQSPSSLSASVGDRVTITCRASQSISSYLNWYQQKPGKAPNLLIYAASSLQSGVPSRFSGSGSETDFTLTISSLQPEDFATYYCQQSHSVSFTFGPGTKVDIKR
notes: Fully human recombinant IgG4-PE (Ser228Pro, Leu235Glu) with human kappa light chain, expressed in CHO-S; also called 02D10; 2D10 IgG4PE

Source: patent EP3265123B1 (Kymab Limited, dated 2022)
